Experimental data reported in patent US20230279059A1 (VIB VZW, published 2023).

B1: Bacillus cereus NVH 0075-95 Endospore appendage (Ena) 1B, wild type (other)
chain: MGNCSTNLSCCANGQKTIVQDKVCIDWTAAATAAIIYADNISQDIYASGYLKVDTGTGPVTIVFYSGGVTGTAVETIVVATGSSASFTVRRFDTVTILGTAAAETGEFCMTIRYTLS
notes: also called WT Ena1B; WT recEna1B
B8: recombinant Ena1B with N-terminal 6xHis tag and TEV cleavage site (other)
chain: MHHHHHHSSGENLYFQGNCSTNLSCCANGQKTIVQDKVCIDWTAAATAAIIYADNISQDIYASGYLKVDTGTGPVTIVFYSGGVTGTAVETIVVATGSSASFTVRRFDTVTILGTAAAETGEFCMTIRYTLS

Legend:
[1] = biological target: the molecule itself; test: self-assembly of tag-free protein in the E. coli cytoplasm, negative stain TEM
[2] = biological target: the molecule itself; test: expression in E. coli, nsTEM
[3] = biological target: the molecule itself; test: expression in E. coli, ns-TEM
[4] = biological target: the molecule itself; test: self-assembly after refolding by dialysis, EM
[5] = biological target: the molecule itself; test: in vitro self-assembly after TEV cleavage, cryo-EM
[6] = biological target: T1, split-BC Ena1B, C-terminal part (strands CDEFGHI) (Bacillus cereus NVH 0075-95); test: co-expression of the two halves in E. coli, NS-TEM
T1 construct: also called split BC construct, C-terminal half
T1 chain: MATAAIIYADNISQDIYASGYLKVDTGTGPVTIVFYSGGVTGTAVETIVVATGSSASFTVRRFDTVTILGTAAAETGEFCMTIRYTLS

[7] = biological target: the molecule itself; test: self-assembly after refolding from 8M urea, negative stain TEM
[8] = biological target: B1; test: immunogold TEM and cryoEM of ex vivo S-type Enas; both subunits within single fibers
[9] = biological target: the molecule itself; test: in vitro self-assembly after TEV cleavage, NS-TEM and cryo-EM
[10] = biological target: the molecule itself; test: self-assembly in the E. coli cytoplasm, NS-TEM
[11] = biological target: the molecule itself; test: self-assembly after TEV cleavage of the His-tag, TEM
[12] = biological target: B8; test: epitaxial growth on maleimide magnetic beads carrying 6×His_TEV_Ena1B multimers, nsTEM

B1
binding result [1]: binds

B2: Ena1B-DE-Flag insertion variant (other)
chain: MGNCSTNLSCCANGQKTIVQDKVCIDWTAAATAAIIYADNISQDIYASGYLKVDTGSDYKDDDDKGSGPVTIVFYSGGVTGTAVETIVVATGSSASFTVRRFDTVTILGTAAAETGEFCMTIRYTLS
binding result [2]: binds

B3: Ena1B-HI-HA insertion variant (other)
chain: MGNCSTNLSCCANGQKTIVQDKVCIDWTAAATAAIIYADNISQDIYASGYLKVDTGTGPVTIVFYSGGVTGTAVETIVVATGSSASFTVRRFDTVTILGGSYPYDVPDYAGSAAETGEFCMTIRYTLS
binding result [2]: binds

B4: M-TEV-Ena1B (M-[…]-Ena1B), steric block of 6 amino acids (other)
chain: MENLYFQGNCSTNLSCCANGQKTIVQDKVCIDWTAAATAAIIYADNISQDIYASGYLKVDTGTGPVTIVFYSGGVTGTAVETIVVATGSSASFTVRRFDTVTILGTAAAETGEFCMTIRYTLS
notes: also called M-TEV-Ena1B (N=6)
binding result [3]: binds

B5: recombinant Ena1C with N-terminal 6xHis tag and TEV cleavage site (other)
chain: MHHHHHHSSGENLYFQGKPHKNIGCFAPLSIICQPTCPCPPPILPPERGDAELVTNEFAGDILISNDFIPISQKQLKQTNTTVNIWKNDGIVSLSGTISIYNNRNSTNALSIQIISSTTNTFTALPGNTISYTGFDLQSVSVIDIPSDPSIYIEGRYCFQLTYCKSKRDCL
notes: also called recEna1C; WP_000802321
binding result [4]: binds

B6: Ena2C after removal of the 6×His-TEV blocker by TEV protease (other)
chain: MKNKKNIGCFAPLSIICPDPCPPPPPPNPNCERVTNEFAGNFLITNNTIPSAKDASQSMILWQSDGILLISGTVSVYNSTSSTETITIQIVGTVTNIFTVFPGNTISYTGKDLHSVSIINITSNPSLYLEGKYCCEFTCCL
notes: also called short L-like Ena2C filaments
binding result [5]: binds

B7: split-BC Ena1B, N-terminal part (strands AB) (other)
chain: MGNCSTNLSCCANGQKTIVQDKVCIDWTAA
notes: also called split BC construct, N-terminal half
binding result [6]: binds

B8
binding result [7]: binds

B9: recEna1BΔNtc (deletion of residues 2-15 of WT Ena1B) (other)
chain: MKTIVQDKVCIDWTAAATAAIIYADNISQDIYASGYLKVDTGTGPVTIVFYSGGVTGTAVETIVVATGSSASFTVRRFDTVTILGTAAAETGEFCMTIRYTLS
binding result [3]: binds

B10: M-His6-SSG-Ena1B, steric block of 9 amino acids (other)
chain: MHHHHHHSSGGNCSTNLSCCANGQKTIVQDKVCIDWTAAATAAIIYADNISQDIYASGYLKVDTGTGPVTIVFYSGGVTGTAVETIVVATGSSASFTVRRFDTVTILGTAAAETGEFCMTIRYTLS
binding result [3]: binds

B11: Bacillus cereus NVH 0075-95 Endospore appendage (Ena) 1A, wild type (other)
chain: MACECSSTVLTCCSDNSSNFVQDKVCNPWSSAEASTFTVYANNVNQNIVGTGYLTYDVGPGVSPANQITVTVLDSGGGTIQTFLVNEGTSISFTFRRFNIIQITTPATPIGTYQGEFCITTRYLMA
notes: also called KMP91697.1; WP_000742049.1
binding result [1]: binds | binding result [8]: binds

B12: Ena2A after removal of the 6×His-TEV blocker by TEV protease (other)
chain: MSCECSGSALTCCPDKNYVQDKVCSPWSATVVATAIDNVLYTNNINQNVVGTGFVKYDVGPGPITVEALDSAGGTIDTQTLNPGTSIAFTYRRFDSIQVVLPATPAGTYQGEFCITTRYPLS
notes: also called in vitro assembled Ena2A filament
binding result [9]: binds

B13: Ena2A without steric block (other)
chain: MSCECSGSALTCCPDKNYVQDKVCSPWSATVVATAIDNVLYTNNINQNVVGTGFVKYDVGPGPITVEALDSAGGTIDTQTLNPGTSIAFTYRRFDSIQVVLPATPAGTYQGEFCITTRYPLS
notes: also called WP_001277540.1
binding result [10]: binds

B14: recEna1B after removal of the N-terminal 6xHis tag by TEV protease (other)
chain: GNCSTNLSCCANGQKTIVQDKVCIDWTAAATAAIIYADNISQDIYASGYLKVDTGTGPVTIVFYSGGVTGTAVETIVVATGSSASFTVRRFDTVTILGTAAAETGEFCMTIRYTLS
notes: also called in vitro Ena1B fibers; recENA1B (PDB7A02)
binding result [11]: binds | binding result [12]: binds
